These results are taken from publication PMC11934925.

The target in series [1] is T1, FLI1 F362A 259-375 (UniProt Q01543 259-375, F362A).
T1 sequence: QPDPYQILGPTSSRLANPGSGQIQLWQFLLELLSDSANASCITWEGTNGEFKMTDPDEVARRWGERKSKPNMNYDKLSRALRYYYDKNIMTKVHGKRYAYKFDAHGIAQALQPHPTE
Kind of series: X-ray crystallography.

For series [2], the target named is T2, FLI1 F362A 259-399 (UniProt Q01543 259-399, F362A).
T2 sequence: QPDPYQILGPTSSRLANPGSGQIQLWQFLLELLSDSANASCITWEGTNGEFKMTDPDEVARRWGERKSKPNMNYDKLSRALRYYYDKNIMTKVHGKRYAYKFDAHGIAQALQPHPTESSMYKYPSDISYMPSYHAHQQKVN
Kind of series: X-ray crystallography.

Series [3] concerns the target T2, FLI1 F362A 259-399. Nature of the series: EMSA.
The target in series [4] is T3, FLI1 F362A 276-399 (UniProt Q01543 276-399, F362A).
T3 sequence: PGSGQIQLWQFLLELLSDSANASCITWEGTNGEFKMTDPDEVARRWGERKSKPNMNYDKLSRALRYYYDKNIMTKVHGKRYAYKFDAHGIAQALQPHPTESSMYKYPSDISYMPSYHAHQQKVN
Kind of series: EMSA. In general terms: A gel shift assay detects complexes by their altered migration in electrophoresis.

The target in series [5] is T4, FLI1 F362A 276-375 (UniProt Q01543 276-375, F362A).
T4 sequence: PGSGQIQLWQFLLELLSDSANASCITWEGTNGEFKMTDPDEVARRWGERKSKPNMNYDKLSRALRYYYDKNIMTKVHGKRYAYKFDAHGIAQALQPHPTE
Nature of the series: EMSA.

In series [6] the target is T5, FLI1 276-371 (UniProt Q01543 276-371).
T5 sequence: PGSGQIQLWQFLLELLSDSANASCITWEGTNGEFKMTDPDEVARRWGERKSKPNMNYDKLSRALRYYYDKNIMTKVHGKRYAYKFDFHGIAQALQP
Nature of the series: EMSA.

For series [7], the target named is T2, FLI1 F362A 259-399. Nature of the series: fluorescence anisotropy.
Series [8] has as its target T1, FLI1 F362A 259-375. Kind of series: fluorescence anisotropy.
Series [9] deals with T4, FLI1 F362A 276-375. Kind of series: fluorescence anisotropy. A general note: In fluorescence polarisation assays a small probe gives low polarisation when free and higher when bound to something large.
Series [10] addresses T6, FLI1 F362A 259-371 (UniProt Q01543 259-371, F362A).
T6 sequence: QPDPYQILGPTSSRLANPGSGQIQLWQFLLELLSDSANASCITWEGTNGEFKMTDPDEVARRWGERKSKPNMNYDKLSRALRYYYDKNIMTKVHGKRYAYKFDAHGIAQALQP
Nature of the series: fluorescence anisotropy.

The target of series [11] is T3, FLI1 F362A 276-399. Kind of series: fluorescence anisotropy.
Series [12] addresses T7, FLI1 276-375 N329E (UniProt Q01543 276-375, N329E;F362A).
T7 sequence: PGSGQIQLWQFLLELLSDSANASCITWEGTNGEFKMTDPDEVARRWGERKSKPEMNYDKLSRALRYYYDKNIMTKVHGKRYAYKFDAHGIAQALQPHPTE
Nature of the series: fluorescence anisotropy.

Series [13] has as its target T8, FLI1 276-375 N329E/D333G (UniProt Q01543 276-375, N329E;D333G;F362A).
T8 sequence: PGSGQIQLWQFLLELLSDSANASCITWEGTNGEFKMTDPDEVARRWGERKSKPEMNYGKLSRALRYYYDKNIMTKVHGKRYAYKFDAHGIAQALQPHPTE
Kind of series: fluorescence anisotropy.

For a further series, the target named is T9, FLI1 276-375 D333G (UniProt Q01543 276-375, D333G;F362A).
T9 sequence: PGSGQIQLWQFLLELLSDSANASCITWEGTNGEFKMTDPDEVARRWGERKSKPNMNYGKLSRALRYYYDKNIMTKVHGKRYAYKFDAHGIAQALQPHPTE
Kind of series: fluorescence anisotropy.

For series [14], the target named is T7, FLI1 276-375 N329E. Nature of the series: fluorescence anisotropy. The source holds these as a separate data set.
Series [15] concerns the target T8, FLI1 276-375 N329E/D333G. Nature of the series: fluorescence anisotropy. The source holds these as a separate data set.
The target of series [16] is T1, FLI1 F362A 259-375. Nature of the series: fluorescence anisotropy. This is another data set of the same source.
The target in series [17] is T4, FLI1 F362A 276-375. Kind of series: fluorescence anisotropy. The source holds these as a separate data set.
Series [18] addresses T6, FLI1 F362A 259-371. Nature of the series: fluorescence anisotropy. The source holds these as a separate data set.
Series [19] deals with T5, FLI1 276-371. Nature of the series: fluorescence anisotropy.
Series [20] has as its target T3, FLI1 F362A 276-399. Kind of series: fluorescence anisotropy. This is another data set of the same source.
The target in another series is T10, FLI1 DBD 259-399 WT (UniProt Q01543 259-399).
T10 sequence: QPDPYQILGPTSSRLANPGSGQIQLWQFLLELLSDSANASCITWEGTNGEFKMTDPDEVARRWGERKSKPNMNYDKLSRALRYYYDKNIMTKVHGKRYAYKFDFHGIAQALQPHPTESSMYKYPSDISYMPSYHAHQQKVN
Kind of series: X-ray crystallography.

The target in series [21] is T2, FLI1 F362A 259-399. Nature of the series: X-ray crystallography. This is another data set of the same source.

B1: 3sites (dsDNA)
DNA 1: GACCGGAAGGAAGGAAGTG
DNA 2: CACTTCCTTCCTTCCGGTC
B1: the binding result with FLI1 F362A 259-375 [1] was “binds”.

B2: 4sites (dsDNA)
DNA 1: GACCGGAAGGAAGGAAGGAAGTGCG
DNA 2: CGCACTTCCTTCCTTCCTTCCGGTC
With B2, the binding result with FLI1 F362A 259-399 [2] is recorded as “binds”.

B3: 2site_strong-weak (s-w) (dsDNA)
DNA 1: CAGACCGGAAGGAAGTG
DNA 2: CACTTCCTTCCGGTCTG
As to B3, the binding result in the series with FLI1 F362A 259-399 [3], with FLI1 F362A 276-399 [4], with FLI1 F362A 276-375 [5] and in the series with FLI1 276-371 [6] was “binds” each time.

B4: 2site_weak-weak (w-w) (dsDNA)
DNA 1: CAGAAAGGAAGGAAGTG
DNA 2: CACTTCCTTCCTTTCTG
B4: the binding signal is 41 ± 21 cooperativity factor w with FLI1 F362A 259-399 [7]; 103 ± 26 cooperativity factor w in the series with FLI1 F362A 259-375 [8]; 33 ± 20 cooperativity factor w with FLI1 F362A 276-375 [9]; 22 ± 7 cooperativity factor w with FLI1 F362A 259-371 [10]; 16 ± 10 cooperativity factor w with FLI1 F362A 276-399 [11]; 6 ± 6 cooperativity factor w with FLI1 276-375 N329E [12]. Further, the binding signal with FLI1 276-375 N329E/D333G [13] and in the series with FLI1 276-375 D333G was around 1 cooperativity factor w throughout.

B5: 1site_weak (dsDNA)
DNA 1: TTGAAGGAAGAG
DNA 2: CTCTTCCTTCAA
For the molecule B5, the Kd (usually the constant that tells how readily two partners part at equilibrium) in the series with FLI1 276-375 N329E [14] stood at 0.275 ± 0.039 µM; in the series with FLI1 276-375 N329E/D333G [15], 0.126 ± 0.014 µM; with FLI1 F362A 259-375 [16] it was 0.544 ± 0.288 µM; in the series with FLI1 F362A 276-375 [17] it was 0.137 ± 0.034 µM; with FLI1 F362A 259-371 [18] it was 1.01 ± 0.421 µM; in the series with FLI1 276-371 [19], 0.402 ± 0.172 µM. The Kd with FLI1 F362A 276-399 [20] came out at 0.146 ± 0.037 µM.

B6: 2sites (dsDNA)
DNA 1: GACCGGAAGGAAGTG
DNA 2: CACTTCCTTCCGGTC
B6: the binding result in the series with FLI1 DBD 259-399 WT and in the series with FLI1 F362A 259-399 [21] was “binds” throughout.
